Reference: patent publication US20170081400A1 (CEPHALON, published 2017)

T1: human TL1A extracellular domain with N-terminal HIS and FLAG tag (human, UniProt O95150 72-251)
T1 construct: the whole entry is named; also called TNFSF15
T1 sequence: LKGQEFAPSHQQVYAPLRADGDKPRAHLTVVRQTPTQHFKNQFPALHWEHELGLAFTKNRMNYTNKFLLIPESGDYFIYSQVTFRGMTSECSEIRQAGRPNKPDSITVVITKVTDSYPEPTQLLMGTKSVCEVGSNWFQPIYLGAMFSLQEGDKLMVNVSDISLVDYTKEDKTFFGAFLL


Tests used:
[1] = target: T1, human TL1A extracellular domain with …; assay: SPR Run 7, antibody on Protein A, TL1A 5 ug/mL, timepoint 44
Description: (§1) 1.5. Antibody expression and antigen binding as determined by SPR. Using a CM5 sensor chip (GE Healthcare) Protein A (Pierce) was coupled to the chip surface using an amine coupling kit (GE Healthcare). Protein A was coupled on flow cell 1 and 2 (or alternatively 3 and 4) using a BIACORE® T200. […] The amount of supernatant or purified protein (as well as the concentration) injected during the capture stage varied between runs and is specified in the header of the Tables 3-11. At the end of injection of the supernatant or purified antibody the change in response units was measured. This value was reported as Capture Level in Tables 3-11. […] The response units were measured prior to the end of the dissociation phase. […] The sensorgrams were double referenced (flow cell 2 is subtracted from flow cell 1 and a buffer blank). As there were a large number of antibody variants to screen, these were screened across different runs (Tables 3-11). […] A summary of the conditions used in each run is below:
(§2) 2.1. […] In some experiment the antibodies were purified using Protein A chromatography (See 1.4) and purified antibodies were used in BIACORE® (GE Healthcare) experiments.

[2] = target: T1, human TL1A extracellular domain with …; assay: SPR Run 7, antibody on Protein A, TL1A 5 ug/mL, timepoint 220
Description: as §1, §2

| Binder | TL1A Binding Level (Early) [1] [RU] | TL1A Binding Level (Late) [2] [RU] |
| --- | --- | --- |
| 320-543 (antibody, human IgG1, name in Kabat numbering, V domains shown, full-length human IgG1, lambda) VH: QVQLVQSGAEVKKPGASVKVSCKASGYTFTSYDINWVRQAPGQGLEWMGWLNPNSGHTGYAQKFQGRVTMTADRSTSTAYMELSSLRSEDTAVYYCAREVPETAAFEYWGQGTLVTVSS VL: QSVLTQPPSVSGAPGQRVTISCTSSSSDIGAGLGVHWYQQLPGTAPKLLIEGYYNRPSGVPDRFSGSKSGTSASLTITGLLPEDEGDYYCQSYDGTLSALFGGGTKLTVLG | 138 | 126 |
| 320-549 (antibody, human IgG1, name in Kabat numbering, V domains shown, full-length human IgG1, lambda) VH: QVQLVQSGAEVKKPGASVKVSCKASGYTFTSYDINWVRQAPGQGLEWMGWLNPNSGNSGYAQKFQGRVTMTADRSTSTAYMELSSLRSEDTAVYYCAREVPETAAFEYWGQGTLVTVSS VL: QSVLTQPPSVSGAPGQRVTISCTSSSSDIGAGLGVHWYQQLPGTAPKLLIEGYYNRPSGVPDRFSGSKSGTSASLTITGLLPEDEGDYYCQSYDGTLSALFGGGTKLTVLG | 50 | 45 |
| 320-551 (antibody, human IgG1, name in Kabat numbering, V domains shown, full-length human IgG1, lambda) VH: QVQLVQSGAEVKKPGASVKVSCKASGYTFTSYDINWVRQAPGQGLEWMGWLNPNSGNDGYAQKFQGRVTMTADRSTSTAYMELSSLRSEDTAVYYCAREVPETAAFEYWGQGTLVTVSS VL: QSVLTQPPSVSGAPGQRVTISCTSSSSDIGAGLGVHWYQQLPGTAPKLLIEGYYNRPSGVPDRFSGSKSGTSASLTITGLLPEDEGDYYCQSYDGTLSALFGGGTKLTVLG | 44 | 36 |
| 320-555 (antibody, human IgG1, name in Kabat numbering, V domains shown, full-length human IgG1, lambda) VH: QVQLVQSGAEVKKPGASVKVSCKASGYTFTSYDINWVRQAPGQGLEWMGWLNPNSGNWGYAQKFQGRVTMTADRSTSTAYMELSSLRSEDTAVYYCAREVPETAAFEYWGQGTLVTVSS VL: QSVLTQPPSVSGAPGQRVTISCTSSSSDIGAGLGVHWYQQLPGTAPKLLIEGYYNRPSGVPDRFSGSKSGTSASLTITGLLPEDEGDYYCQSYDGTLSALFGGGTKLTVLG | 62 | 30 |
| 320-552 (antibody, human IgG1, name in Kabat numbering, V domains shown, full-length human IgG1, lambda) VH: QVQLVQSGAEVKKPGASVKVSCKASGYTFTSYDINWVRQAPGQGLEWMGWLNPNSGNHGYAQKFQGRVTMTADRSTSTAYMELSSLRSEDTAVYYCAREVPETAAFEYWGQGTLVTVSS VL: QSVLTQPPSVSGAPGQRVTISCTSSSSDIGAGLGVHWYQQLPGTAPKLLIEGYYNRPSGVPDRFSGSKSGTSASLTITGLLPEDEGDYYCQSYDGTLSALFGGGTKLTVLG | 104 | 97 |
| 320-540 (antibody, human IgG1, name in Kabat numbering, V domains shown, full-length human IgG1, lambda) VH: QVQLVQSGAEVKKPGASVKVSCKASGYTFTSYDINWVRQAPGQGLEWMGWLNPNSGSTGYAQKFQGRVTMTADRSTSTAYMELSSLRSEDTAVYYCAREVPETAAFEYWGQGTLVTVSS VL: QSVLTQPPSVSGAPGQRVTISCTSSSSDIGAGLGVHWYQQLPGTAPKLLIEGYYNRPSGVPDRFSGSKSGTSASLTITGLLPEDEGDYYCQSYDGTLSALFGGGTKLTVLG | 100 | 92 |
| 320-548 (antibody, human IgG1, name in Kabat numbering, V domains shown, full-length human IgG1, lambda) VH: QVQLVQSGAEVKKPGASVKVSCKASGYTFTSYDINWVRQAPGQGLEWMGWLNPNSGNAGYAQKFQGRVTMTADRSTSTAYMELSSLRSEDTAVYYCAREVPETAAFEYWGQGTLVTVSS VL: QSVLTQPPSVSGAPGQRVTISCTSSSSDIGAGLGVHWYQQLPGTAPKLLIEGYYNRPSGVPDRFSGSKSGTSASLTITGLLPEDEGDYYCQSYDGTLSALFGGGTKLTVLG | 74 | 68 |
| 320-550 (antibody, human IgG1, name in Kabat numbering, V domains shown, full-length human IgG1, lambda) VH: QVQLVQSGAEVKKPGASVKVSCKASGYTFTSYDINWVRQAPGQGLEWMGWLNPNSGNQGYAQKFQGRVTMTADRSTSTAYMELSSLRSEDTAVYYCAREVPETAAFEYWGQGTLVTVSS VL: QSVLTQPPSVSGAPGQRVTISCTSSSSDIGAGLGVHWYQQLPGTAPKLLIEGYYNRPSGVPDRFSGSKSGTSASLTITGLLPEDEGDYYCQSYDGTLSALFGGGTKLTVLG | 112 | 103 |

Continued, values first:

| TL1A Binding Level (Early) [1] [RU] | TL1A Binding Level (Late) [2] [RU] | Binder |
| --- | --- | --- |
| 54 | 49 | 320-538 (antibody, human IgG1, name in Kabat numbering, V domains shown, full-length human IgG1, lambda) VH: QVQLVQSGAEVKKPGASVKVSCKASGYTFTSYDINWVRQAPGQGLEWMGWLNPNSWNTGYAQKFQGRVTMTADRSTSTAYMELSSLRSEDTAVYYCAREVPETAAFEYWGQGTLVTVSS VL: QSVLTQPPSVSGAPGQRVTISCTSSSSDIGAGLGVHWYQQLPGTAPKLLIEGYYNRPSGVPDRFSGSKSGTSASLTITGLLPEDEGDYYCQSYDGTLSALFGGGTKLTVLG |
| 120 | 112 | 320-544 (antibody, human IgG1, name in Kabat numbering, V domains shown, full-length human IgG1, lambda) VH: QVQLVQSGAEVKKPGASVKVSCKASGYTFTSYDINWVRQAPGQGLEWMGWLNPNSGKTGYAQKFQGRVTMTADRSTSTAYMELSSLRSEDTAVYYCAREVPETAAFEYWGQGTLVTVSS VL: QSVLTQPPSVSGAPGQRVTISCTSSSSDIGAGLGVHWYQQLPGTAPKLLIEGYYNRPSGVPDRFSGSKSGTSASLTITGLLPEDEGDYYCQSYDGTLSALFGGGTKLTVLG |
| 84 | 78 | 320-553 (antibody, human IgG1, name in Kabat numbering, V domains shown, full-length human IgG1, lambda) VH: QVQLVQSGAEVKKPGASVKVSCKASGYTFTSYDINWVRQAPGQGLEWMGWLNPNSGNKGYAQKFQGRVTMTADRSTSTAYMELSSLRSEDTAVYYCAREVPETAAFEYWGQGTLVTVSS VL: QSVLTQPPSVSGAPGQRVTISCTSSSSDIGAGLGVHWYQQLPGTAPKLLIEGYYNRPSGVPDRFSGSKSGTSASLTITGLLPEDEGDYYCQSYDGTLSALFGGGTKLTVLG |
| 172 | 159 | 320-539 (antibody, human IgG1, name in Kabat numbering, V domains shown, full-length human IgG1, lambda) VH: QVQLVQSGAEVKKPGASVKVSCKASGYTFTSYDINWVRQAPGQGLEWMGWLNPNSGATGYAQKFQGRVTMTADRSTSTAYMELSSLRSEDTAVYYCAREVPETAAFEYWGQGTLVTVSS VL: QSVLTQPPSVSGAPGQRVTISCTSSSSDIGAGLGVHWYQQLPGTAPKLLIEGYYNRPSGVPDRFSGSKSGTSASLTITGLLPEDEGDYYCQSYDGTLSALFGGGTKLTVLG |
| 109 | 100 | 320-545 (antibody, human IgG1, name in Kabat numbering, V domains shown, full-length human IgG1, lambda) VH: QVQLVQSGAEVKKPGASVKVSCKASGYTFTSYDINWVRQAPGQGLEWMGWLNPNSGLTGYAQKFQGRVTMTADRSTSTAYMELSSLRSEDTAVYYCAREVPETAAFEYWGQGTLVTVSS VL: QSVLTQPPSVSGAPGQRVTISCTSSSSDIGAGLGVHWYQQLPGTAPKLLIEGYYNRPSGVPDRFSGSKSGTSASLTITGLLPEDEGDYYCQSYDGTLSALFGGGTKLTVLG |
| 94 | 84 | 320-541 (antibody, human IgG1, name in Kabat numbering, V domains shown, full-length human IgG1, lambda) VH: QVQLVQSGAEVKKPGASVKVSCKASGYTFTSYDINWVRQAPGQGLEWMGWLNPNSGQTGYAQKFQGRVTMTADRSTSTAYMELSSLRSEDTAVYYCAREVPETAAFEYWGQGTLVTVSS VL: QSVLTQPPSVSGAPGQRVTISCTSSSSDIGAGLGVHWYQQLPGTAPKLLIEGYYNRPSGVPDRFSGSKSGTSASLTITGLLPEDEGDYYCQSYDGTLSALFGGGTKLTVLG |
| 66 | 51 | 320-554 (antibody, human IgG1, name in Kabat numbering, V domains shown, full-length human IgG1, lambda) VH: QVQLVQSGAEVKKPGASVKVSCKASGYTFTSYDINWVRQAPGQGLEWMGWLNPNSGNLGYAQKFQGRVTMTADRSTSTAYMELSSLRSEDTAVYYCAREVPETAAFEYWGQGTLVTVSS VL: QSVLTQPPSVSGAPGQRVTISCTSSSSDIGAGLGVHWYQQLPGTAPKLLIEGYYNRPSGVPDRFSGSKSGTSASLTITGLLPEDEGDYYCQSYDGTLSALFGGGTKLTVLG |
| 97 | 86 | 320-542 (antibody, human IgG1, name in Kabat numbering, V domains shown, full-length human IgG1, lambda) VH: QVQLVQSGAEVKKPGASVKVSCKASGYTFTSYDINWVRQAPGQGLEWMGWLNPNSGDTGYAQKFQGRVTMTADRSTSTAYMELSSLRSEDTAVYYCAREVPETAAFEYWGQGTLVTVSS VL: QSVLTQPPSVSGAPGQRVTISCTSSSSDIGAGLGVHWYQQLPGTAPKLLIEGYYNRPSGVPDRFSGSKSGTSASLTITGLLPEDEGDYYCQSYDGTLSALFGGGTKLTVLG |
| 67 | 61 | 320-546 (antibody, human IgG1, name in Kabat numbering, V domains shown, full-length human IgG1, lambda) VH: QVQLVQSGAEVKKPGASVKVSCKASGYTFTSYDINWVRQAPGQGLEWMGWLNPNSGWTGYAQKFQGRVTMTADRSTSTAYMELSSLRSEDTAVYYCAREVPETAAFEYWGQGTLVTVSS VL: QSVLTQPPSVSGAPGQRVTISCTSSSSDIGAGLGVHWYQQLPGTAPKLLIEGYYNRPSGVPDRFSGSKSGTSASLTITGLLPEDEGDYYCQSYDGTLSALFGGGTKLTVLG |
